For the data set, the target named is T1, DitR (Stenotrophomonas maltophilia K279a) (UniProt B2FL17).
T1 sequence: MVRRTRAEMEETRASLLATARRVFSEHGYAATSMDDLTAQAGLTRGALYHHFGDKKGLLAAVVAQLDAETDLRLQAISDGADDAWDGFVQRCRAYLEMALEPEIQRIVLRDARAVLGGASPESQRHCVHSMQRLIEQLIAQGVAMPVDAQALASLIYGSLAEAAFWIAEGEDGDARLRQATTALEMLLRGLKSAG
Kind of data set: DNase I footprinting.

For “GGGGGCGGCGAACAGGTCGCGGTAGGGGGTGGCCATCGGGATCTCCAGGGCAGCGGCTTGCCTGGCGCTCCCGGCGCCACGACAATACATACAGAGCGTATGAATAAGAGCCTACATTCATACGCGTCGTATGTAAATAATCATGCACTGCGTATGTAAGGAGCTCCGGATGGTCCGTCGCACCCGCGCCGAAATGGAAGAAAC (double strand) [mfsBC promoter fragment, 204 bp, Box I]”, the binding entry is “binds”.
On to “GGGGGCGGCGAACAGGTCGCGGTAGGGGGTGGCCATCGGGATCTCCAGGGCAGCGGCTTGCCTGGCGCTCCCGGCGCCACGACAATACATACAGAGCGTATGAATAAGAGCCTACATTCATACGCGTCGTATGTAAATAATCATGCACTGCGTATGTAAGGAGCTCCGGATGGTCCGTCGCACCCGCGCCGAAATGGAAGAAAC (double strand) [mfsBC promoter fragment, 204 bp, Box II]”, for which the binding result was “binds”.

Source of the values: paper PMC9342713.
